In patent US20100204147A1 (REGENERX BIOPHARMACEUTICALS, published 2010):

How the values were obtained:
Experiment in all cases: ELISA, immobilized fragment, without factor XIII or with non-activated factor XIII
[1] = target: T1, Recombinant truncated αC-fragment, COOH-terminal half (residues Aα392-610) (human, UniProt P02671 411-629)
T1 construct: probably the mature Aα chain; also called Aα392-610 sub-fragment; Aα392-610 fragment
T1 sequence (looked up): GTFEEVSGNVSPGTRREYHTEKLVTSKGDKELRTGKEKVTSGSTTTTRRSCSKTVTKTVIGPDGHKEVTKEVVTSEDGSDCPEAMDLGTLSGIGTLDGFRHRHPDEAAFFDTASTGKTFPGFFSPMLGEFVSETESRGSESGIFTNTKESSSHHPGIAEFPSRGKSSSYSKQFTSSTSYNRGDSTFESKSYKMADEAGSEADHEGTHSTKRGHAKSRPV
Description: (§1) The interaction between thymosin β4 and fibrin(ogen) and its fragments in the presence or absence of FXIIIa was studies by ELISA using plastic microliter plates. Wells of microliter plates were coated overnight at −4° C. with fibrinogen and fibrin at 10 μg/mL or with the recombinant fragments of 20 μg/ml, all in 0.1 M NaHCO₃ buffer, pH 8.3. Fibrin was made by addition to the wells of a mixture containing 10 μg/mL fibrinogen 1 NIH u/ml thrombin and 400 u/ml aprotinin, followed by overnight incubation at +4° C. The wells were then blocked by incubation with Super Blocker (Pierce) at 37° C. for 1 h. Following washing with TBS containing 0.05% Tween-20 (TBS-Tween), the indicated concentrations of thymosin β4, FXIII, FXIIIa(Thr) and FXIIIa(Ca) were added to the wells and incubated for 2-2.5 h at 37° C. Bound (incorporated) thymosin β4 was detected by the reaction with rabbit anti-thymosin β4 serum and peroxidase-conjugated anti-rabbit IgG. A TMB Microwell Peroxidase Substrase was added to the wells, and the incorporated thymosin β4 was measured spectrophotometrically at 450 nm.
(§2) The above observations were confirmed by ELISA. […] It should be noted that the incorporation of the γ-module was almost twice lower than that of the αC-domain variants at all concentration studied. When thymosin β4 was incubated with the same immobilized species in the presence of non-activated factor XIII or without it, the incorporation was very low in all cases.

[2] = target: T2, Recombinant truncated αC-fragment, NH2-terminal half (residues Aα221-391) (human, UniProt P02671 240-410)
T2 construct: probably the mature Aα chain
T2 sequence (looked up): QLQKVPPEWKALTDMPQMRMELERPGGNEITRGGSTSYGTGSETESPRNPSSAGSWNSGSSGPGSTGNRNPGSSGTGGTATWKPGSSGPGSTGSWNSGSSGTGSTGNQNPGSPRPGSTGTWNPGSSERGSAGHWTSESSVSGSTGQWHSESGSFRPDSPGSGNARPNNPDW
Description: as §1, §2

[3] = target: T3, Recombinant αC-fragment corresponding to the human fibrinogen αC-domain (residues Aα221-610) (human, UniProt P02671 240-629)
T3 construct: By fibrinogen convention they are probably mature Aα chain numbering, without the signal peptide
T3 sequence (looked up): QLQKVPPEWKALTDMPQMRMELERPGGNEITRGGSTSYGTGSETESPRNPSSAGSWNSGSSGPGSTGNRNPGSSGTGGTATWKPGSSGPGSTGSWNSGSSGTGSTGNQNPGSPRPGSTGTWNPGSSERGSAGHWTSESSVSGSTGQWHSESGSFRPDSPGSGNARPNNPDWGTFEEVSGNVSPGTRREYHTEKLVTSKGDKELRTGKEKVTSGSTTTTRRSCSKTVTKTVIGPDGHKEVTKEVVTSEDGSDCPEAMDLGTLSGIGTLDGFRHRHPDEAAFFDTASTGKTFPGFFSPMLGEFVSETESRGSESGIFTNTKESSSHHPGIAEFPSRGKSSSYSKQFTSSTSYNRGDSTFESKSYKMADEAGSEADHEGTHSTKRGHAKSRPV
Description: as §1, §2

Measured: binding result

SDKPDMAEIEKFDKSKLKKTETQEKNPLPSKETIEQEKQAGES (peptide, UniProt P62328 2-44, looked up, not fully specified, mature; also called Tβ4) [Synthetic thymosin β4]
no binding: all assays above
